Experimental data reported in US20110287512.

How the values were obtained:
[1] = system: ZFP8196 linker TPSHTPRPKP center linker F2-F3 TGEKP replaced by TPSHTPRPKP (artificial); test: ELONA; details: normalized ELISA score
[2] = system: ZFP8196 (host, center linker TGEKP) (artificial); test: ELONA
[3] = system: ZFP8196 linker TGYSIPRPKP center linker F2-F3 TGEKP replaced by TGYSIPRPKP (artificial); test: ELONA; details: normalized ELISA score
[4] = system: ZFP8196 linker TVSPAPCRSKP center linker F2-F3 TGEKP replaced by TVSPAPCRSKP (artificial); test: ELONA; details: normalized ELISA score
[5] = system: ZFP8196 linker 1f center linker F2-F3 TGEKP replaced by TYPRPIAAKP (artificial); test: ELONA; details: normalized ELISA score
[6] = system: ZFP8196 linker TPGLHRPKP center linker F2-F3 TGEKP replaced by TPGLHRPKP (artificial); test: ELONA; details: normalized ELISA score
[7] = system: ZFP8196 linker TPDRPISTCKP center linker F2-F3 TGEKP replaced by TPDRPISTCKP (artificial); test: ELONA; details: normalized ELISA score
[8] = system: ZFP8196 linker TGGGGSQKP center linker F2-F3 TGEKP replaced by TGGGGSQKP (artificial); test: ELONA; details: normalized ELISA score
[9] = system: ZFP8196 linker TSPRLPAPKP center linker F2-F3 TGEKP replaced by TSPRLPAPKP (artificial); test: ELONA; details: normalized ELISA score
[10] = system: ZFP8196 linker TCPRPPTRKP center linker F2-F3 TGEKP replaced by TCPRPPTRKP (artificial); test: ELONA; details: normalized ELISA score
[11] = system: ZFP8196 linker TEPRAKPPKP center linker F2-F3 TGEKP replaced by TEPRAKPPKP (artificial); test: ELONA; details: normalized ELISA score
[12] = system: ZFP8196 linker TPDAPKPKP center linker F2-F3 TGEKP replaced by TPDAPKPKP (artificial); test: ELONA; details: normalized ELISA score
[13] = system: ZFP8196 linker 1c center linker F2-F3 TGEKP replaced by THPRAPIPKP (artificial); test: ELONA; details: normalized ELISA score
[14] = system: ZFP8196 linker TSSPRSNAKP center linker F2-F3 TGEKP replaced by TSSPRSNAKP (artificial); test: ELONA; details: normalized ELISA score
[15] = system: ZFP8196 linker TGEGGKP center linker F2-F3 TGEKP replaced by TGEGGKP (artificial); test: ELONA; details: normalized ELISA score
[16] = system: ZFP8196 linker 1d center linker F2-F3 TGEKP replaced by TPNRRPAPKP (artificial); test: ELONA; details: normalized ELISA score
[17] = system: ZFP8196 linker LRQKDERP center linker F2-F3 TGEKP replaced by LRQKDERP (artificial); test: ELONA; details: normalized ELISA score
[18] = system: ZFP7263 linker TQRPQIPPKP (artificial)
[19] = system: ZFP7263 (host, center linker TGSQKP) (artificial)
[20] = system: ZFP7263 linker TGGGGSQKP (artificial)
[21] = system: ZFP7263 linker TYPRPLLAKP (artificial)
[22] = system: ZFP7263 linker TPLCQRPMKQKP (artificial)
[23] = system: ZFP7263 linker LRQKDERP (artificial)
[24] = system: ZFP7263 linker TPNRCPPTKP (artificial)
[25] = system: ZFP7263 linker TGEGGKP (artificial)
[26] = system: ZFP7263 linker TPRPPIPKP (artificial)
[27] = system: ZFP7264 linker LRQKDERP (artificial)
[28] = system: ZFP7264 linker TKHGTPKHREDKP (artificial)
[29] = system: ZFP7264 linker 1e (artificial)
[30] = system: ZFP7264 linker TSRPRPKP (artificial)
[31] = system: ZFP7264 linker TLPPCFRPKP (artificial)
[32] = system: ZFP7264 (host, center linker TGSQKP) (artificial)
[33] = system: ZFP7264 linker TGEGGKP (artificial)
[34] = system: ZFP7264 linker TLPLPRPKP (artificial)
[35] = system: ZFP7264 linker TGGGGSQKP (artificial)
[36] = system: ZFP7264 linker TGLPKPKP (artificial)
[37] = system: ZFN7264 linker TSRPRPKP (artificial); test: cell_activity; details: yeast, paired with 7263 ZFN
[38] = system: ZFN7264 linker TGLPKPKP (artificial); test: cell_activity; details: yeast, paired with 7263 ZFN
[39] = system: ZFN7264 linker 1e center linker F2-F3 TGSQKP replaced by TVPRPTPPKP (artificial); test: cell_activity; details: normalized yeast MEL-1 score, with invariant 7263 ZFN partner
[40] = system: ZFN7264 linker TGGGGSQKP (artificial); test: cell_activity; details: yeast, paired with 7263 ZFN
[41] = system: ZFN7264 (host) (artificial); test: cell_activity; details: yeast, paired with 7263 ZFN
[42] = system: ZFP8196 linker TNTTRPYRPPKP center linker F2-F3 TGEKP replaced by TNTTRPYRPPKP (artificial); test: ELONA; details: normalized ELISA score
[43] = system: ZFP8196 linker TASCPRPFRPPKP center linker F2-F3 TGEKP replaced by TASCPRPFRPPKP (artificial); test: ELONA; details: normalized ELISA score
[44] = system: ZFP8196 linker 2f center linker F2-F3 TGEKP replaced by TPNPHRRTDPSHKP (artificial); test: ELONA; details: normalized ELISA score
[45] = system: ZFP8196 linker TSINRPFRRPKP center linker F2-F3 TGEKP replaced by TSINRPFRRPKP (artificial); test: ELONA; details: normalized ELISA score
[46] = system: ZFP8196 linker 2e center linker F2-F3 TGEKP replaced by TPGGKSSRTDRNKP (artificial); test: ELONA; details: normalized ELISA score
[47] = system: ZFP8196 linker TGSLRPYRRPKP center linker F2-F3 TGEKP replaced by TGSLRPYRRPKP (artificial); test: ELONA; details: normalized ELISA score
[48] = system: ZFP8196 linker 2d center linker F2-F3 TGEKP replaced by TLAPRPYRPPKP (artificial); test: ELONA; details: normalized ELISA score
[49] = system: ZFP8196 linker LRQKDGGGSERP (Kim, Pabo) center linker F2-F3 TGEKP replaced by LRQKDGGGSERP (artificial); test: ELONA; details: normalized ELISA score
[50] = system: ZFP8196 linker TETTRPFRPPKP center linker F2-F3 TGEKP replaced by TETTRPFRPPKP (artificial); test: ELONA; details: normalized ELISA score
[51] = system: ZFP8196 linker TGGGGSGGSQKP (flexible) center linker F2-F3 TGEKP replaced by TGGGGSGGSQKP (artificial); test: ELONA; details: normalized ELISA score
[52] = system: ZFP8196 linker TGEARPYRPPKP center linker F2-F3 TGEKP replaced by TGEARPYRPPKP (artificial); test: ELONA; details: normalized ELISA score

“TTAGATAAACTGTCAAAAGGCTATC (double strand) [8196 target gap T]” showed a binding signal [1] of 0.8, a binding signal ([2]; normalized ELISA score) of 0.01 and a binding signal [3] of 0.55. The binding signal [4] was 0.19, the binding signal [5] was 0.64 and the binding signal [6] was 0.81. It also gave a binding signal [7] of 0.47, a binding signal [8] of 0 and a binding signal [9] of 0.81. It also gave a binding signal [10] of 0.62, a binding signal [11] of 0.93 and a binding signal [12] of 0.95. The binding signal [13] was 0.6, the binding signal [14] was 0.25 and the binding signal [15] was 0.03. It also gave a binding signal [16] of 0.52 and a binding signal [17] of 0.08.

“TTAGCCACTCTGCTTGGAAGTGTATC (double strand) [7263 target gap CT]” gave a binding signal (normalized ELISA) [18] of 0.01, a binding signal (normalized ELISA) [19] of 0 and a binding signal (normalized ELISA) [20] of 0.02. It also gave a binding signal (normalized ELISA) [21] of 0.01, a binding signal (normalized ELISA) [22] of 0.02 and a binding signal (normalized ELISA) [23] of 0.01. For the same sequence, the binding signal (normalized ELISA) [24] was 0.01, the binding signal (normalized ELISA) [25] was 0.01 and the binding signal (normalized ELISA) [26] was 0.01.

“TTAGTTAAAGCGCTGCTCCGAATATC (double strand) [7264 target gap CT]” was tested, and the binding signal (normalized ELISA) [27] was 0.02, the binding signal (normalized ELISA) [28] was 0 and the binding signal (normalized ELISA) [29] was 0.06. The binding signal (normalized ELISA) [30] was 0.03, the binding signal (normalized ELISA) [31] was 0.05 and the binding signal (normalized ELISA) [32] was 0. The binding signal (normalized ELISA) [33] was 0.03, the binding signal (normalized ELISA) [34] was 0.03 and the binding signal (normalized ELISA) [35] was 0.07. For the same sequence, the binding signal (normalized ELISA) [36] was 0.02.

In the case of “AAAGCGGCTCCG (double strand) [7264 yeast half-site 0-bp gap]”, the activity (normalized MEL-1) [37] is reported as 0.08, the activity (normalized MEL-1) [38] is reported as 0.04 and the activity [39] is reported as 0.08. It also gave an activity (normalized MEL-1) [40] of 0.28 and an activity (normalized MEL-1) [41] of 1.

Sequence “TTAGATAAACTGCAAAAGGCTATC (double strand) [8196 target 0-bp gap]” has a binding signal [1] of 0.02, a binding signal [42] of 0.001 and a binding signal [43] of 0.01. The binding signal ([2]; ELISA normalized to host on 0-bp gap target (reference)) was 1, the binding signal [3] was 0.01 and the binding signal [4] was 0.01. The binding signal [5] was 0.01, the binding signal [44] was 0.003 and the binding signal [45] was 0.01. For the same sequence, the binding signal [46] was 0.005, the binding signal [47] was 0.001 and the binding signal [48] was 0.005. For the same sequence, the binding signal [6] was 0.04, the binding signal [7] was 0.01 and the binding signal [8] was 0. The binding signal [49] was 0.01, the binding signal [9] was 0.01 and the binding signal [50] was 0.001. For the same sequence, the binding signal [10] was 0, the binding signal [11] was 0.01 and the binding signal [12] was 0.02. It also gave a binding signal [13] of 0, a binding signal [14] of 0.01 and a binding signal [15] of 0.1. It also gave a binding signal [16] of 0, a binding signal [51] of 0.019 and a binding signal [52] of 0.001. It also gave a binding signal [17] of 0.01.
